The results in this text go back to IntAct's records for PubMed 25772236.

B1: E1B 55 kDa protein (Human adenovirus C serotype 5 (HAdV-5)), P03243-1 (parent)
chain: MERRNPSERGVPAGFSGHASVESGCETQESPATVVFRPPGDNTDGGAAAAAGGSQAAAAGAEPMEPESRPGPSGMNVVQVAELYPELRRILTITEDGQGLKGVKRERGACEATEEARNLAFSLMTRHRPECITFQQIKDNCANELDLLAQKYSIEQLTTYWLQPGDDFEEAIRVYAKVALRPDCKYKISKLVNIRNCCYISGNGAEVEIDTEDRVAFRCSMINMWPGVLGMDGVVIMNVRFTGPNFSGTVFLANTNLILHGVSFYGFNNTCVEAWTDVRVRGCAFYCCWKGVVCRPKSRASIKKCLFERCTLGILSEGNSRVRHNVASDCGCFMLVKSVAVIKHNMVCGNCEDRASQMLTCSDGNCHLLKTIHVASHSRKAWPVFEHNILTRCSLHLGNRRGVFLPYQCNLSHTKILLEPESMSKVNLNGVFDMTMKIWKVLRYDETRTRCRPCECGGKHIRNQPVMLDVTEELRPDHLVLACTRAEFGSSDEDTD
partner: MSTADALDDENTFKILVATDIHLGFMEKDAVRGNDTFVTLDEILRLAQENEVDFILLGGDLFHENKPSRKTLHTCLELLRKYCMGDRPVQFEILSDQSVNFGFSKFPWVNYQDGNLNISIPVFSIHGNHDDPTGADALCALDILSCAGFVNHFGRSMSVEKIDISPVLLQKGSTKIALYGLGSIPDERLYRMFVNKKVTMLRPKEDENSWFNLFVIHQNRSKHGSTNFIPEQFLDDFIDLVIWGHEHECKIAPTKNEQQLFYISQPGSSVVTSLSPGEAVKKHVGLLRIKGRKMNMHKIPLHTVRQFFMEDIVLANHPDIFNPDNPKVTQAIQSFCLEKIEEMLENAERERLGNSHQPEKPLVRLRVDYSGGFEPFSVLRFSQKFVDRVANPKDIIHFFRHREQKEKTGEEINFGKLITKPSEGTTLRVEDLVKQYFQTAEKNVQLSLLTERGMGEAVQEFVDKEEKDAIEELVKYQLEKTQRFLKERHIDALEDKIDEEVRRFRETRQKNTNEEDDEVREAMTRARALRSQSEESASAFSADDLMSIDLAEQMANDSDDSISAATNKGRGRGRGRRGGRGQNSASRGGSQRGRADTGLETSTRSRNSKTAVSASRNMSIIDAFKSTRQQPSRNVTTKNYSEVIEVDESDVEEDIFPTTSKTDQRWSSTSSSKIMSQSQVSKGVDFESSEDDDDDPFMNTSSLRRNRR
B2: E1B 55 kDa protein (Human adenovirus C serotype 5 (HAdV-5)), P03243-1 (parent)
chain: B1 chain

Variants of B1 are the subject of the first experiment. The settings on record: with mre11_human MRE11, P49959.
On to K104R, for which the “effect of a mutation on the interaction” value is recorded as “decreasing interaction strength”.

The next experiment covers variants of B2. Conditions: with PML.
Turning to R448A;T449A;R450A, the “effect of a mutation on the interaction” value is given as “disrupting interaction strength”.

Variants of B2 are the subject of the next experiment. Conditions: with PML. This is another data set of the same source.
Consider R443A, for which the “effect of a mutation on the interaction” value was “decreasing interaction strength”. With K104R, the “effect of a mutation on the interaction” value is “decreasing interaction strength”.

Variants of B2 are the subject of the next experiment. Conditions: with DAXX.
R443A: the “effect of a mutation on the interaction” value is “decreasing interaction strength”.
